The text below walks through data of article PMC4066763, “Programmable DNA-binding proteins from Burkholderia provide a fresh perspective on the TALE-like repeat domain”.

For orientation: Kd means the free concentration of one partner at which half of the binding sites on the other are occupied at equilibrium, for simple one-to-one binding.

The target of series [1] is T1, Bat2 (Burkholderia rhizoxinica HKI 0454, UniProt E5AW45 1-997).
T1 sequence: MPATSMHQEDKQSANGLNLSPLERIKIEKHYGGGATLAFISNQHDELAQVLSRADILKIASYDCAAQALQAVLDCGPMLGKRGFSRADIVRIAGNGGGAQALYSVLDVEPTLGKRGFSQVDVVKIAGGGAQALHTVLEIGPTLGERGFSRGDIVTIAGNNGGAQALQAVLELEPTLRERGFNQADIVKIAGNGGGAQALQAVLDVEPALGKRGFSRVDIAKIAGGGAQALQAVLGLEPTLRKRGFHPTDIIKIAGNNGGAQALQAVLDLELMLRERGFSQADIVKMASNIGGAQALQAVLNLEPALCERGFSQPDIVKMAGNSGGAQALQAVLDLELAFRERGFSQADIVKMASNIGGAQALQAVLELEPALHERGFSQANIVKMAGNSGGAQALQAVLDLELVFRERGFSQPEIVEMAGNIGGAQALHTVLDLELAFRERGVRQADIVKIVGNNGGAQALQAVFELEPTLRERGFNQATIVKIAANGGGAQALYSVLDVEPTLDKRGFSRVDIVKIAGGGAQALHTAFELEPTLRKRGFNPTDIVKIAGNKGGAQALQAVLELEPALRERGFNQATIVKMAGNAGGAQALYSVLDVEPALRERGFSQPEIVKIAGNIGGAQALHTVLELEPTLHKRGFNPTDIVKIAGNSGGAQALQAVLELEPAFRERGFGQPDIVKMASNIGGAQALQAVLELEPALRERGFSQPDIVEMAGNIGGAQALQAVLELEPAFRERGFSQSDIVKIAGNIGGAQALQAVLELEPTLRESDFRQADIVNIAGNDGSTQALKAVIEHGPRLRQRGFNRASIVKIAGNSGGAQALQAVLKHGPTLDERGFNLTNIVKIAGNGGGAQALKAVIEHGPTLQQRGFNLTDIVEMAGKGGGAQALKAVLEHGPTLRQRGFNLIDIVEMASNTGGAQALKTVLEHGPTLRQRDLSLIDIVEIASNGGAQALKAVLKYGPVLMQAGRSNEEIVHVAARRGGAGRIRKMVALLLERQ
Put plainly: EMSA; 100 nM protein, 10 nM DNA, poly dI.dC; EMSA: 15 mM Tris-Cl, 75 mM KCl, 2.5 mM DTT, 0.063% NP-40, 62.5 ng/ul dI.dC, 0.125 mg/ml BSA, 6.25% glycerol, 6.25 mM MgCl2, 0.125 mM EDTA, room temp, gel at 4 C; MST: 20 mM Tris pH 7.4, 150 mM NaCl, 10 mM MgCl2, 0.05% Tween, room temp, 100 nM labelled Bat1. To be noted: protein: recombinant; tags: N-terminal His; label: 5' Cy5 forward strand.

Series [2] has as its target T2, Bat3 (Burkholderia rhizoxinica HKI 0454, UniProt E5AW43 1-311).
T2 sequence: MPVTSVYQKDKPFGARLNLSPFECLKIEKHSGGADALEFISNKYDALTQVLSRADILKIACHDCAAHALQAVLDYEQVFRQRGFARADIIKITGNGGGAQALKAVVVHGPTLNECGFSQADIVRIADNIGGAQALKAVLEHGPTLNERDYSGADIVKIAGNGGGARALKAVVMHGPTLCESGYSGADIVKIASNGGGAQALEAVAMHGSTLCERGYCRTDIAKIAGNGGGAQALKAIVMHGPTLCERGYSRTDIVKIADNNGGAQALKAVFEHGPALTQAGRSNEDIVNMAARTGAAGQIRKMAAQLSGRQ
The description is as above. To be noted: protein: recombinant; tags: N-terminal His; label: 5' Cy5 forward strand.

Series [3] concerns the target T3, Bat1 (BurrH) (Burkholderia rhizoxinica HKI 0454, UniProt E5AV36 1-771).
T3 sequence: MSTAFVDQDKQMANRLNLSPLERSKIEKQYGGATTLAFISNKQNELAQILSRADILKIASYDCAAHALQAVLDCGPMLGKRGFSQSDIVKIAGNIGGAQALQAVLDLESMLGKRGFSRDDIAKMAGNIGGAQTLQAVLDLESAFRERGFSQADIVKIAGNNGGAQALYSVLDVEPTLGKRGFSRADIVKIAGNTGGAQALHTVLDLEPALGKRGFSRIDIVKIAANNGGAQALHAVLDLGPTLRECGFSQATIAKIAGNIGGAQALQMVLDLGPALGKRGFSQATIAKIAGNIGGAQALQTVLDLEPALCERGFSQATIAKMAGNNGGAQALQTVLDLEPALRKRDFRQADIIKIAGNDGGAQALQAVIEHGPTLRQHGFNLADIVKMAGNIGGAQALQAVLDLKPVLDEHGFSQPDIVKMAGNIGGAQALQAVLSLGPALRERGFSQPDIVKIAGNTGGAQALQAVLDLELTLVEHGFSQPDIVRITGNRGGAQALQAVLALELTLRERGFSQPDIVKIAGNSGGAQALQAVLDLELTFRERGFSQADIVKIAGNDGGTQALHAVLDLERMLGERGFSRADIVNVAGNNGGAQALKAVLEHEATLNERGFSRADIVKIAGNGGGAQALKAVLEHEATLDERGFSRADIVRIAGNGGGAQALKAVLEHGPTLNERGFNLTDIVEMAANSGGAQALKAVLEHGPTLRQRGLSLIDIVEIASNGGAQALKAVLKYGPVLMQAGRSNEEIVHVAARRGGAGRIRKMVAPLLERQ
The series is described as above. To be noted: protein: recombinant; tags: N-terminal His; label: 5' Cy5 forward strand.

Series [4] has as its target T3, Bat1 (BurrH). Nature of the series: MST; 10 mM MgCl2; EMSA: 15 mM Tris-Cl, 75 mM KCl, 2.5 mM DTT, 0.063% NP-40, 62.5 ng/ul dI.dC, 0.125 mg/ml BSA, 6.25% glycerol, 6.25 mM MgCl2, 0.125 mM EDTA, room temp, gel at 4 C; MST: 20 mM Tris pH 7.4, 150 mM NaCl, 10 mM MgCl2, 0.05% Tween, room temp, 100 nM labelled Bat1. To be noted: protein: recombinant; tags: N-terminal His; label: none (stated unlabelled). On the technique in general: In EMSA bound probe runs differently from free probe, usually more slowly.

B1: BEBat1 (T0), EMSA (dsDNA)
DNA 1: TAGACTAAGAGAAGCAAAGACGTTATATGC
DNA 2: GCATATAACGTCTTTGCTTCTCTTAGTCTA
On to B1, for which the binding result in series [1] and in series [2] was “no binding” throughout.

B2: BEBat3, EMSA (dsDNA)
DNA 1: TAGACATAGATTATTATATTTGTAACAAGTAAATGC
DNA 2: GCATTTACTTGTTACAAATATAATAATCTATGTCTA
With B2, the binding result in series [1], in series [2] and in series [3] was “no binding” in each case.

B3: BEBat1 A-0, MST (dsDNA)
DNA 1: TAGACAAAGAGAAGCAAAGACGTTATATGC
DNA 2: GCATATAACGTCTTTGCTTCTCTTTGTCTA
Turning to B3, the binding result in series [4] was “binds”.

B4: BEBat1 T-0, MST (dsDNA)
DNA 1: TAGACTAAGAGAAGCAAAGACGTTATATGC
DNA 2: GCATATAACGTCTTTGCTTCTCTTAGTCTA
For the molecule B4, the Kd in series [4] was 132 nM.

B5: BEBat1 C-0, MST (dsDNA)
DNA 1: TAGACCAAGAGAAGCAAAGACGTTATATGC
DNA 2: GCATATAACGTCTTTGCTTCTCTTGGTCTA
As for B5, in series [4], the binding result is “binds”.

B6: BEBat2, EMSA (dsDNA)
DNA 1: TAGACTTTGTTGAAAAGTTGTAAAAACATTATATGC
DNA 2: GCATATAATGTTTTTACAACTTTTCAACAAAGTCTA
As to B6, the figures for the binding result in series [1], in series [2] and in series [3] were “binds”, “no binding” and “no binding”, respectively.

B7: BEBat1 G-0, MST (dsDNA)
DNA 1: TAGACGAAGAGAAGCAAAGACGTTATATGC
DNA 2: GCATATAACGTCTTTGCTTCTCTTCGTCTA
As to B7, the binding result in series [4] was “binds”.
